The values below come from patent publication US9988424 (DUKE UNIVERSITY, dated 2018).

One may read the IC50 as the concentration needed to halve the response being measured. Read a low IC50 as inhibition by little substance.

Test [1] addresses T1, A.9004SS V1V2 Tags.
T1 Env construct: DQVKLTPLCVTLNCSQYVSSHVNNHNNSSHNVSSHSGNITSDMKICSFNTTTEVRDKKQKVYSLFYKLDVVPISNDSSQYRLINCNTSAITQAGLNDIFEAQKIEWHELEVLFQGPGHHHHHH
Kind of test: ELISA, OD405. For orientation: ELISA stands for enzyme-linked immunosorbent assay.

The target of test [2] is T2, AE.con gp140CF.
T2 construct: also called AE.con.env03 gp140CF
Kind of test: ELISA, OD405.

The target of test [3] is B. 681-7 gp140C. Briefly: ELISA, OD405.
Test [4] deals with B. 684-6 gp140C. Kind of test: ELISA, OD405.
Test [5] has as its target T3, B.62357 140C.
T3 construct: also called B.62357 gp140C
Kind of test: ELISA, OD405.

Test [6] has as its target B.63521 gp140C. Briefly: ELISA, OD405.
For test [7], the target named is T4, B.63521_V1V2 Tags.
T4 Env construct: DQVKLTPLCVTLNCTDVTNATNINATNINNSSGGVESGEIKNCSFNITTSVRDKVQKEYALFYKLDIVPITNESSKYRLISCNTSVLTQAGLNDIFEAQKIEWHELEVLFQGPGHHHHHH
Briefly: ELISA, OD405.

The target of test [8] is T5, B.Case A2 V1/V2 Tags.
T5 Env construct: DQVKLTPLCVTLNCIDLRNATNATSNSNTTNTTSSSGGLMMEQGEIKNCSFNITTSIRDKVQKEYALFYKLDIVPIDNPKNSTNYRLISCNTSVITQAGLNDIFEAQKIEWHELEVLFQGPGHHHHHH
Kind of test: ELISA, OD405.

Test [9] has as its target T6, B.con gp140CF.
T6 construct: also called B.con.env03 gp140CF
Kind of test: ELISA, OD405.

Test [10] deals with T7, C.1086 gp140.
T7 construct: also called C.1086gp140C
Briefly: ELISA, OD405.

Test [11] addresses Con 6 gp120. Briefly: ELISA, OD405.
Test [12] concerns the target T8, D.9009SA V1V2 Tags.
T8 Env construct: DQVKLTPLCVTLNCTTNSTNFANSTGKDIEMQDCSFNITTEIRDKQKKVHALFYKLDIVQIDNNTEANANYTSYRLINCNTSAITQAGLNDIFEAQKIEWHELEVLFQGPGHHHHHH
Kind of test: ELISA, OD405.

Test [13] deals with T9, G.con gp140CF.
T9 construct: also called G.con.env03 gp140CF
Briefly: ELISA, OD405.

The target of test [14] is T10, B.HXB/BAL gp140CFI (HIV-1, UniProt P04578 33-680).
T10 construct: also called B.HxB/Ba gp140 CFI
Briefly: ELISA, OD405.

Test [15] has as its target MN gp120 (HIV-1).
The target in test [16] is T11, A.9004SS V1/V2 tags.
T11 V1V2 tags construct: T1 Env construct
Briefly: ELISA, OD405 at 10 ug/ml.

For test [17], the target named is AE.con gp140CF. Kind of test: ELISA, OD405 at 10 ug/ml.
The target in test [18] is B.040 gp140C. Briefly: ELISA, OD405 at 10 ug/ml.
Test [19] has as its target T12, B.62357 gp140C.
T12 construct: also called B.62357 140C
Briefly: ELISA, OD405 at 10 ug/ml.

The target of test [20] is B.63521_V1/V2 tags. Briefly: ELISA, OD405 at 10 ug/ml.
The target in test [21] is T13, C.1086 gp140.
T13 construct: also called C.1086gp140C
Briefly: ELISA, OD405 at 10 ug/ml.

Test [22] concerns the target Con 6 gp120. Briefly: ELISA, OD405 at 10 ug/ml.
The target of test [23] is D.9009SA V1/V2 tags. Briefly: ELISA, OD405 at 10 ug/ml.
Test [24] concerns the target G.con gp140CF. Briefly: ELISA, OD405 at 10 ug/ml.

B1: 697D reverted unmutated ancestor antibody (antibody, V domains shown)
VH: QVQLVQSGAEVKKPGSSVKVSCKASGGTFSSYTISWVRQAPGQGLEWMGRIIPILGIANYAQKFQGRVTITADKSTSTAYMELSSLRSEDTAVYYCATSGVGLHFGYFDYWGQGTLVTVSS
VL: QSVLTQPPSVSGAPGQRVTISCTGSSSNIGAGYDVHWYQQLPGTAPKLLIYGNSNRPSGVPDRFSGSKSGTSASLAITGLQAEDEADYYCQSYDSSLSGYVFGTGTKVTVL
notes: also called 697D RUA
On to B1, for which the binding result in test [1], in test [2], in test [3], in [4], in test [5] and in [6] was “no binding (tested: 10 ug/ml)” each time. In addition, the binding result in [7], in test [8], in test [9], in test [10], in test [11] and in test [12] was “no binding (tested: 10 ug/ml)” in each case. The binding result in test [13] was “no binding (tested: 10 ug/ml)”.

B2: CH58 reverted unmutated ancestor antibody (antibody, V domains shown)
VH: EVQLVQSGAEVKKPGESLKISCKGSGYSFTSYWIGWVRQMPGKGLEWMGIIYPGDSDTRYSPSFQGQVTISADKSISTAYLQWSSLKASDTAMYYCARLGGRYYYDSSGYYYFDYWGQGTLVTVSS
VL: NFMLTQPHSVSESPGKTVTISCTRSSGSIASNYVQWYQQRPGSSPTTVIYEDNQRPSGVPDRFSGSIDSSSNSASLTISGLKTEDEADYYCQSYDSSSWVFGGGTKLTVL
notes: also called CH58 RUA; CH58_RUA
Regarding B2, the binding result in test [14] is given as “no binding (tested: 10 ug/ml)”.

B3: CH59 (antibody, V domains shown)
VH: EVQLVESGGGLVQPGRSLRLSCAASGFTFDDGAMHWVRQAPGKGLEWVSGISWNSNIIAYADSVKGRFTISRDNAKNSLYLEMNSLRVEDTALYYCAKDSPRGELPLNYWGQGTLVTVSS
VL: SYELTQPPSVSVSPGQTARITCSGDALPKNYAYWYQQKSGQAPVLVIYEDSKRPSGIPERFSGSSSGTMATLTISGAQVEDEADYYCYSTDSSGNHRVFGGGTKLTVL
notes: also called mAb CH59
With B3, the IC50 in test [15] lay within 10 to 100 nM. The binding result in [16] is “binds”; in test [17], “binds”; in test [18] it was “no binding (tested: 10 ug/ml)”; in test [19] it was “no binding (tested: 10 ug/ml)”; in [20] it was “no binding (tested: 10 ug/ml)”; in test [21], “binds”. The figures for the binding result in [22], in test [23] and in test [24] were “no binding (tested: 10 ug/ml)”, “binds” and “no binding (tested: 10 ug/ml)”, respectively.
